Assay results from patent US20210388107A1.

Legend:
[1] = molecular target: human SIRPβ1v2, AVI-tagged, biotinylated, monomeric form (human) (UniProt Q5TFQ8); experiment: SPR, captured monomeric antigen
[2] = molecular target: human SIRPβ1v1, AVI-tagged, biotinylated, monomeric form (human) (UniProt O00241); experiment: SPR, captured monomeric antigen
[3] = molecular target: human SIRPαBIT expressed on cells (human) (UniProt P78324); experiment: flow cytometry, ExpiCHO-S cells
[4] = molecular target: cynomolgus monkey SIRPα expressed on ExpiCHO-S cells (cynomolgus monkey); experiment: flow cytometry, ExpiCHO-S cells
[5] = molecular target: human SIRPα1 expressed on cells (human) (UniProt P78324); experiment: flow cytometry, ExpiCHO-S cells
[6] = molecular target: human SIRPγ, extracellular domain, Avi-FXa-Fc tag (human); experiment: SPR, captured biotinylated antigen
[7] = molecular target: human SIRPβ1v1, extracellular domain, Avi-FXa-Fc tag (human); experiment: SPR, captured biotinylated antigen
[8] = molecular target: human SIRPα1 extracellular domain 1-370, Avi-FXa-Fc tag (human); experiment: SPR, captured biotinylated antigen
[9] = molecular target: cynomolgus monkey SIRPα, extracellular domain, Avi-FXa-Fc tag (cynomolgus monkey); experiment: SPR, captured biotinylated antigen
[10] = molecular target: human SIRPβ1v2, extracellular domain, Avi-FXa-Fc tag (human); experiment: SPR, captured biotinylated antigen
[11] = molecular target: human SIRPαBIT, extracellular domain 1-370, Avi-FXa-Fc tag (human); experiment: SPR, captured biotinylated antigen
[12] = molecular target: human SIRPαBIT expressed on cells (human) (UniProt P78324); experiment: flow cytometry, U937 cells

Sequence of human SIRPαBIT expressed on cells (human) (P78324 31-504 limits assumed): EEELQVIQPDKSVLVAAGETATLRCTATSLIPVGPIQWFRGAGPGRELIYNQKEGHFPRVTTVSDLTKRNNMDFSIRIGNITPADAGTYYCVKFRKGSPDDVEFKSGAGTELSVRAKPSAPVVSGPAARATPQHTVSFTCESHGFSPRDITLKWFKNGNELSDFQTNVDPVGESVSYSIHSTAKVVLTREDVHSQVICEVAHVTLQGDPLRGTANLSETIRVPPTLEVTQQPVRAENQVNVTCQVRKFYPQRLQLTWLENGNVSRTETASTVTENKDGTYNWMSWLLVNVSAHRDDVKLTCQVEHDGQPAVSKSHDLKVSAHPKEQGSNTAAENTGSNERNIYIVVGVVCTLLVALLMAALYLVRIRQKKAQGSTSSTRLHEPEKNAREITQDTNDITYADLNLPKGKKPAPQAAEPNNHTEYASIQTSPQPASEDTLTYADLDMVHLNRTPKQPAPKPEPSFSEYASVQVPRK
Sequence of human SIRPαBIT, extracellular domain 1-370, Avi-FXa-Fc tag (human) (chain, as listed by the source limits assumed): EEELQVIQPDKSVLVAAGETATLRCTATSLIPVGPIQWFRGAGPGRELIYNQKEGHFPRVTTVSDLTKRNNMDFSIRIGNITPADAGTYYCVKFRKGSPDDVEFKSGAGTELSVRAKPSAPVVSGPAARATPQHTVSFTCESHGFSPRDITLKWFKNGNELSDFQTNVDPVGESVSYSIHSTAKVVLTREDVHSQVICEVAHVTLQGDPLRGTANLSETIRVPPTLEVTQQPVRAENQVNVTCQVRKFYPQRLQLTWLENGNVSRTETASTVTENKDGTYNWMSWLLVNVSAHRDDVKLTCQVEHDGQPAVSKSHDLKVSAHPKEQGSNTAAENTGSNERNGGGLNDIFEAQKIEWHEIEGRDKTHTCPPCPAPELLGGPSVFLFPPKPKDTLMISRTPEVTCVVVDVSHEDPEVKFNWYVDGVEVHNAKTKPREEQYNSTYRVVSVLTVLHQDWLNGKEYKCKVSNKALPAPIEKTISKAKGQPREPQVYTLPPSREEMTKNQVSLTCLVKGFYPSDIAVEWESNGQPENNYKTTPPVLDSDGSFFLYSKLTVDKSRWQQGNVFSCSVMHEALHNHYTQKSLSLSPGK
Sequence of human SIRPγ, extracellular domain, Avi-FXa-Fc tag (human) (chain, as listed by the source limits assumed): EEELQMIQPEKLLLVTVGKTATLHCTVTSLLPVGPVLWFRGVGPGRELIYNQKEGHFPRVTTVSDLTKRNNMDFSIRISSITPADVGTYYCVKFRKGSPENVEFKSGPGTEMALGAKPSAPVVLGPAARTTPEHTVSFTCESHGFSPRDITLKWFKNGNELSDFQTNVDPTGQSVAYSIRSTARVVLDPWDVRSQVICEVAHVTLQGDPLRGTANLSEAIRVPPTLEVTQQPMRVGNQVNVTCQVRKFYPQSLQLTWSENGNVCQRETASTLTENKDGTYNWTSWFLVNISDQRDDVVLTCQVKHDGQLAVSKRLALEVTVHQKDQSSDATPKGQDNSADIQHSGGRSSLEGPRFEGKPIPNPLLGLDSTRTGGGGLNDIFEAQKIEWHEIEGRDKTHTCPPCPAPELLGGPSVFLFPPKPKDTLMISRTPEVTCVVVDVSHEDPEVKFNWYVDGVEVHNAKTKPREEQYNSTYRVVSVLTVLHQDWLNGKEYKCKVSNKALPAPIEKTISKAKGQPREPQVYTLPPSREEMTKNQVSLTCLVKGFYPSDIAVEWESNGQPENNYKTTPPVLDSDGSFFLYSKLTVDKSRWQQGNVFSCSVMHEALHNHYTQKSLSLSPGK
Sequence of human SIRPβ1v2, AVI-tagged, biotinylated, monomeric form (human) (Q5TFQ8 30-371): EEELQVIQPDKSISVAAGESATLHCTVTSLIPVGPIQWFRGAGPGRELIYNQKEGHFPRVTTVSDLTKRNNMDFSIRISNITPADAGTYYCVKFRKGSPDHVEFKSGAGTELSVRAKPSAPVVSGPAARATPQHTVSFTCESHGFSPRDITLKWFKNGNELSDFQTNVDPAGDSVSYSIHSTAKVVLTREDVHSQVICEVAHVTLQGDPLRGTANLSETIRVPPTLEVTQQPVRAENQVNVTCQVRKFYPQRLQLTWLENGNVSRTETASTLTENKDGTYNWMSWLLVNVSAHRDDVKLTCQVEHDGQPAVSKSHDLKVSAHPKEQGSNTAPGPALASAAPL
Sequence of cynomolgus monkey SIRPα, extracellular domain, Avi-FXa-Fc tag (cynomolgus monkey) (chain, as listed by the source limits assumed): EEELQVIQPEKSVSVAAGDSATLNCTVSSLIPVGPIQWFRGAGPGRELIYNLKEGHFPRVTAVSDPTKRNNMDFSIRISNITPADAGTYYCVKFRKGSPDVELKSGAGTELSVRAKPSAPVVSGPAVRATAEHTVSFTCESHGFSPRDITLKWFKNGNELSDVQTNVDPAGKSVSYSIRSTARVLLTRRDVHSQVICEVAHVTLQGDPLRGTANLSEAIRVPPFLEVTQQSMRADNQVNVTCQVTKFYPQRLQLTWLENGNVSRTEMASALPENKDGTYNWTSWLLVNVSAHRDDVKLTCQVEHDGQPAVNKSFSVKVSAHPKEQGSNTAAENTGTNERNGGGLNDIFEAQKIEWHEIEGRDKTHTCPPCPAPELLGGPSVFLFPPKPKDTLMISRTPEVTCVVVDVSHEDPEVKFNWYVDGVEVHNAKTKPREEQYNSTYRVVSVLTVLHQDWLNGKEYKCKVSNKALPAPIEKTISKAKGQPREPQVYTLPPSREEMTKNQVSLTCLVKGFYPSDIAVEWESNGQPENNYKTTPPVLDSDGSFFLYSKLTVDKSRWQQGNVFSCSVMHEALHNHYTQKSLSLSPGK
Sequence of human SIRPβ1v1, AVI-tagged, biotinylated, monomeric form (human) (O00241 30-371): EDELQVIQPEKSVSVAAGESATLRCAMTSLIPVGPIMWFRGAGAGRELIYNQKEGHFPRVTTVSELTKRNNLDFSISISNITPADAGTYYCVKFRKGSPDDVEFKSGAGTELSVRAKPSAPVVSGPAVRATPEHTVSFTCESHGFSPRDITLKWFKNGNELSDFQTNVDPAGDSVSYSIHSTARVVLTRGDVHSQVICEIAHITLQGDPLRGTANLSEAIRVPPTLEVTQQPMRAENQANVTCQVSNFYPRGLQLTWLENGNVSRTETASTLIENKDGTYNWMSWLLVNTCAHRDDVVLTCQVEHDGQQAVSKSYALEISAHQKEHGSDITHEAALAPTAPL
Sequence of human SIRPβ1v2, extracellular domain, Avi-FXa-Fc tag (human) (chain, as listed by the source limits assumed): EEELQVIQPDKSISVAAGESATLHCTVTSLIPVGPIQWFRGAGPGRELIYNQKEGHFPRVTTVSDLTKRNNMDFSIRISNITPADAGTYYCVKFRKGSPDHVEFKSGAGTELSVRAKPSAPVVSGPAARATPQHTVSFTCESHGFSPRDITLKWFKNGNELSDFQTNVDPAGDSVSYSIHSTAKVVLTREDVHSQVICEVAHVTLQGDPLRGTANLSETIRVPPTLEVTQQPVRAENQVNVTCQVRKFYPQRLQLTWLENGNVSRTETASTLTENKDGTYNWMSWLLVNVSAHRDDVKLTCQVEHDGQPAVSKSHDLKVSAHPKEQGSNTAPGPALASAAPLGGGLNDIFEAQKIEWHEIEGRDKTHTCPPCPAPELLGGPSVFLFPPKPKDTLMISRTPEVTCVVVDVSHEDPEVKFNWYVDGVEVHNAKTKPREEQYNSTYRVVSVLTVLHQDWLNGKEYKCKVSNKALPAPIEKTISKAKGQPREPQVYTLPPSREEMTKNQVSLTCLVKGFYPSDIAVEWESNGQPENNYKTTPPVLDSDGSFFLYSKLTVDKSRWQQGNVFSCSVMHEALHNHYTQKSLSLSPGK
Sequence of human SIRPα1 extracellular domain 1-370, Avi-FXa-Fc tag (human) (chain, as listed by the source limits assumed): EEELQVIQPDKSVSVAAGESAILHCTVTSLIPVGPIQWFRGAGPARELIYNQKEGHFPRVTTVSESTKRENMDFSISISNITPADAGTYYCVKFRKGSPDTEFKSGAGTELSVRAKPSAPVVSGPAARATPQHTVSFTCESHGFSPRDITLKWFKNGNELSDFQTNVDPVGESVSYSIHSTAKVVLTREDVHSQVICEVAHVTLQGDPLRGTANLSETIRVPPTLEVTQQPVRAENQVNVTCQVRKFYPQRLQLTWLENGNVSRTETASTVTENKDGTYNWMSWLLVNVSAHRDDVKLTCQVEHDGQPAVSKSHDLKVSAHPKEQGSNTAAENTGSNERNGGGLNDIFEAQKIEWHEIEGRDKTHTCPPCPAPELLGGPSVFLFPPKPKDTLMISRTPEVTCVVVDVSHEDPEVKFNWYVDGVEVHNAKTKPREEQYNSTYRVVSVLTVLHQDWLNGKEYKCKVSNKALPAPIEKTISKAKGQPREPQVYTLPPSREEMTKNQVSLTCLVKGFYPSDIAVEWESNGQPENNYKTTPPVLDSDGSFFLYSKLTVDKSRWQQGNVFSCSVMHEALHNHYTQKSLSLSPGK
Sequence of human SIRPβ1v1, extracellular domain, Avi-FXa-Fc tag (human) (chain, as listed by the source limits assumed): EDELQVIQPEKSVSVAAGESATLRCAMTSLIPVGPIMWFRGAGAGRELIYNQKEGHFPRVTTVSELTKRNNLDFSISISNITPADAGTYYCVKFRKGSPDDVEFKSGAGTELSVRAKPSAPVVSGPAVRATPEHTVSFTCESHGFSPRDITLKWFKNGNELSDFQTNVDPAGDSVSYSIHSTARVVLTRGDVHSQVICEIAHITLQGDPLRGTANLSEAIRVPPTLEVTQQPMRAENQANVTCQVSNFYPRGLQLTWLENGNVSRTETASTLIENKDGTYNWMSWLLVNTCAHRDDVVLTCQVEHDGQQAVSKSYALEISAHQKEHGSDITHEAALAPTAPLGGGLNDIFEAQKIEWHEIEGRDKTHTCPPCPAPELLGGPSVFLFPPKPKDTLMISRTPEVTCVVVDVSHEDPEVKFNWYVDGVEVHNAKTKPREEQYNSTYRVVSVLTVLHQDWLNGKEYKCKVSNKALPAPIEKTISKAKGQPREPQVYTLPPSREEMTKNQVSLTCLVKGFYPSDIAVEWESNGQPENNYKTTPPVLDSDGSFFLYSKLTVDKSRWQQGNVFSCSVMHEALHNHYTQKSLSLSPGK

Kd [1]: 358 pM
Kd [2]: 63.1 pM
EC50 [3]: 0.62 µg/mL
EC50 [4]: 0.05 µg/mL
EC50 [5]: 0.09 µg/mL
Kd [6]: 2660 pM
Kd [7]: 38.2 pM
Kd [8]: 15.4 pM
Kd [9]: 1800 pM
Kd [10]: 287 pM
Kd [11]: 798 pM
EC50 [12]: 1.48 µg/mL
Substance: SE5A5 (mouse IgG1κ, Biolegend, purified anti-human CD172a/b) (antibody)
